{"source": "the DeepSol protein solubility set"}
{"assay": "soluble on expression in E. coli; label from the status in PepcDB or PDB records"}
{"sequence": "MALLAEHLLRPLPADKQIETGPFLEAVSHLPPFFDCLGSPVFTPIKADISGNITKIKAVYDTNPTKFRTLQNILEVEKEMYGAEWPKVGATLALMWLKRGLRFIQVFLQSICDGERDENHPNLIRVNATKAYEMALKKYHGWIVQKIFQAALYAAPYKSDFLKALSKGQNVTEEECLEKVRLFLVNYTATIDVIYEMYTRMNAELNYKV", "soluble on expression in E. coli": "soluble"}
{"sequence": "MALLGPKEQEIVRERLANLTRDVEMVLFTDSSTLIAPGKEPCLYCKETKQLLEELSALSDKLHLVVYDLATPEGREKAGAYKVEAAPTLILREKGSEAINLRYRGIPAGYEFASLLEDIEMLGRDGHGLPENVVQELNDLPEEVVLQVFVTPTCPYCPQAVRTAHRLAYASPKVWGEMIEANEFPALSDRYRIHGVPDTIINHGKERVLGAQPLSQFLQAIRKAVGVRA", "soluble on expression in E. coli": "soluble"}
{"sequence": "MALREMIIDESDDIESYSDQSLCLDKAKELLALIKLPTGLLPLKDMTEVGYNKTKGFVWMRMRSKIEHTFREIGRRVLYDTEITAFVEDRRMRRLTGVKSKELMIWVPVNDIFIKRKILRRSPLLIPPACHEHLKFQHFNVRVDKLKEKRSNQTSLM", "soluble on expression in E. coli": "not soluble"}
{"sequence": "MALSGIYKLDDGKPYLNNCFPARNLLRVPEEGQGHWLVVQKGNLKKKPKGLVGAQAERRESLKATSFEFKGKKESRRENQVDLPGHILDQAFLLKHHCVRKPSDLCTINAKENDFKHFHSVIYINASENLLPLEAFHTFPALKELDLAFNGIKTIYVKYGDFKLLEFLDLSFNSLTVEAICDLGILPHLRVLLLTGNGLTSLPPNLAVAEQEASVTSLTSKRYILRFPALETLMLDDNRLSNPSCFASLAGLRRLKKLSLDENRIIRIPYLQQVQLYDESVDWNGGRGSPHKEPQFMLQSKPRMLEDSDEQLDYTVLPMKKDVDRTGVPPLLKSFLQERLGIHLIRRKIVKPKHHVLMSRKESWKVKSEIPKVPKQPLVLHHPRMRTTKSPSKDMLEPEAELAEDLPTTKSTSVESEMPTENLEGHSPSCRTFVPLPPICSNSTVHSEETLSHLSDTTVRLSPERPSDEDSKSTESIFLTQVSELPSSVIHKDDLELKEKDQKKPPTAPREVKGTRRKLPTAFLPSKYHGYEELLTAKPDPAFIEPKGIQKNAQALQQMLKHPLLCHSSKPKLDTLQKPYVHKEKRVLSCTSGQNGGW", "soluble on expression in E. coli": "not soluble"}
{"sequence": "MALSKTIATVTRRICERSAPTREIYLDRIAKAQANHPKRSFLGCANQAHGFAACGSIDKKRLKRNIVGNIGIITAYNDILSAHQPFESFPHLIKETARMFGGVAQVAGGVPAMCDGVTQGNTGMELSLFSRDVIAMATAIGLSHDMFDAALYLGVCDKIVPGLVIGALTFGHLPGIFVPAGPMTSGQGNDEKAKIRQLYAENKIDRQTLLESEARSYHGPGTCTFYGTANSNQVILEMMGLHMPGSSFINANTPLRDALTKEATKRVLEMIALGDSYSPIGLIVDERSFVNAVVGLNATGGSTNHAIHLIAMAAAAGILLTWHDIAEISSVVPLLARIYPNGLADINHFHAAGGMGFVIRELIEAGLVHEDVCTVFGKDLNAYAIEAKLCNDDNVVREPALNESANHKVLTGWRKPFQSDGGIRILLGDLGTAIMKVSSVKSEYWRIEAPVLVFNDQEELQEAFKAGVLNDKDFIAVIRYQGPKANGMPELHKLTTILGVLQDRGQKVALVTDGRMSGASGKIPAAIHVTPEALDDGPIARLQNGDVVCLDAHVGKLAILEDKVEFNARKITLPDLSKNEYGVGRELFRIFRHSVNRADQGASVLIA", "soluble on expression in E. coli": "not soluble"}
{"sequence": "MALVRFSPLYEFDRELGTLQRQMSRFLQPWPWTEAELKELSFAPAVEVKETDAAIELRVELPGIDPKDLDLQVTAEAVVLKGERRSEDRSEAEGVLRTEFRYGAFERVIPLPAQVKNTEAQADYQNGILVLTLPKRDEELHKVVKVDLGHLAAAPVAAEACERLEHHHHHH", "soluble on expression in E. coli": "soluble"}
